Assays:
[1] = cited from earlier work
[2] = system: Ter-cells; test: Spleen size, splenocytes and splenic Ter-cells by flow cytometry; type: in vivo, mouse
Experimental: (§1) Tumor models and treatments. 1×10^6 MC38, LLC, or B16-SIY tumor cells were subcutaneously injected into the flank of mice. On day 10 after tumor inoculation, tumors were either irradiated with one dose of 20 Gy or mice received sham treatment. For anti-PD-L1 treatment experiments, 200 μg anti-PD-L1 (10F.9G2) or isotype control was given by i.p. every three days for a total of four times starting on day 10 after tumor inoculation. For type I IFN blockade experiments, 200 μg anti-IFNAR1 were intratumorally injected on days 0 and 2 after irradiation. For CD4 or CD8 T cell depletion experiments, 200 μg anti-CD4 or anti-CD8 mAb was delivered four times by i.p. injection every 3 days starting 1 day before therapies. Artemin-neutralizing antibody was delivered i.t. at 1 μg/mouse starting on day of irradiation, every 2 days for 7 doses. For Ter-cell depletion, anti-ter119 was injected i.p. at 20 μg/mouse every 2 days for 4 doses. For Ter-cell or artemin treatment groups, mice were administered 1×10^7 purified Ter cells i.v. every other day for a total of three doses, or mice were treated with 0.5 μg/mouse artemin i.t. every other day starting on day 0 of therapies throughout the studies. For EPO treatment groups, mice were treated with 20 U/mouse EPO i.v. every other day throughout the studies, starting on day 0 of the therapies. IFN-γ was administered through intrasplenic injection on day 15 post tumor implantation at 2 μg/mouse for 1 dose. LOXO-292 was administered by oral gavaging at 100 μg/mouse/day throughout the entire studies, starting on day 0 of the therapies. Spleens were harvested on day 20 or at indicated times post-inoculation for analysis of spleen size or splenic cells. Tumor size was monitored and calculated with the formula for area (length×width).
(§2) Flow Cytometry. […] Single cell suspensions were blocked with anti-FcR (2.4G2, BioXcell) and then stained with fluorescence-labeled antibodies. Flow cytometry was performed on BD LSR Fortessa at The University of Chicago core facility and data were analyzed with FlowJo software.

[3] = system: LLC tumor; test: Tumor growth of LLC tumor-bearing mice treated with IR or anti-PD-L1 plus test agent; type: in vivo, mouse; conditions: LLC tumor-bearing B6 mice; for Tumor growth: influence on the therapeutic effect of IR and PD-L1 blockade: agent combined with 20 Gy IR or anti-PD-L1
Experimental: as §1

[4] = system: LLC tumor; test: Spontaneous lung metastasis (number of lung nodules) in LLC tumor-bearing mice; type: in vivo, mouse; conditions: murine LLC model; combined with IR or anti-PD-L1
Experimental: FIG. 55. Number of lung nodules in LLC tumor-bearing mice at the end of tumor growth measurement: anti-PD-L1 treatment. B6 mice were inoculated with LLC cells. On day 10 post inoculation, tumor-bearing mice were treated with anti-PD-L1. Splenectomy was performed 1 day before treatments. Representative data are shown from two or three experiments conducted with 3-5 mice or samples per group. Data are represented as mean±SD. **p<0.01 and ***p<0.001.
FIGS. 62A-62B. Number of lung modules. B6 mice were inoculated with LLC cells. On day 10 post inoculation, tumor-bearing mice were treated with either IR (FIG. 62A) or anti-PD-L1 (FIG. 62B) plus LOXO-292. Splenectomy was performed 1 day before treatments. […] Representative data are shown from two or three experiments conducted with 3-5 mice or samples per group. Data are represented as mean±SD. *p<0.05, **p<0.01, and ***p<0.001.
Tumor models and treatments. 1×10^6 MC38, LLC, or B16-SIY tumor cells were subcutaneously injected into the flank of mice. On day 10 after tumor inoculation, tumors were either irradiated with one dose of 20 Gy or mice received sham treatment. For anti-PD-L1 treatment experiments, 200 μg anti-PD-L1 (10F.9G2) or isotype control was given by i.p. every three days for a total of four times starting on day 10 after tumor inoculation. […] Tumor size was monitored and calculated with the formula for area (length×width).

[5] = system: p-AKT and p-ERK in LLC cells; test: Western blot of p-AKT and p-ERK in LLC cells treated with ARTN and LOXO-292; type: cell-based, mouse; conditions: 100 ng/mL ARTN and 1 μg/mL LOXO-292
Experimental: FIGS. 61A-61C. Tumor growth of LLC tumor-bearing mice treated with LOXO-292 and either IR (FIG. 61A) or anti-PD-L1 (FIG. 61B). (FIG. 61C) p-AKT and p-ERK in LLC cells treated with 100 ng/mL ARTN and 1 μg/mL LOXO-292 were detected by western blot. Representative data are shown from two or three experiments. Data are represented as mean±SD. *p<0.05, **p<0.01, and ***p<0.001.
Western Blot Analysis. Whole-cell protein was extracted with Triton-X100 buffer (150 mM sodium chloride, 50 mM Tris, 1% Triton-X100; pH 8.0) with proteinase inhibitors (Thermo Scientific®). Immuno-blotting analyses were performed as previously described (Hou, Y., Liang, H., Rao, E., Zheng, W., Huang, X., Deng, L., Zhang, Y., Yu, X., Xu, M., Mauceri, H., et al. (2018). Non-canonical NF-kappaB Antagonizes STING Sensor-Mediated DNA Sensing in Radiotherapy. Immunity 49, 490-503 e494). The amount of loaded protein was normalized to GAPDH (60004-1-Ig, Proteintech Group) or actin (8226, Abcam).

[6] = system: Ter-cells; test: Splenic cells by flow cytometry after intrasplenic IFN-γ injection in LLC-bearing mice; type: in vivo, mouse
Experimental: FIG. 27. Apoptosis of splenic Ter-cells as analyzed by flow cytometry at indicated times post-injection. B6 mice were inoculated with LLC on day 0 and recombinant mouse IFN-γ was administered through intrasplenic injection on day 15. Representative data are shown from two or three experiments conducted with 3-5 mice per group. Data are represented as mean±SD. *p<0.05, **p<0.01, and ***p<0.001.
FIG. 28A-28C. Mechanism of IR-induced Ter-cell reduction in spleen. (FIG. 28A) Apoptosis of splenic CD45^+ immune cells, MDSCs, and CD8^+ T cells as analyzed by flow cytometry at indicated time post IFN-γ intrasplenic injection. (FIG. 28B) The percentage of CD8^+ T cells were analyzed by flow cytometry at indicated time post IFN-γ intrasplenic injection. (FIG. 28C) […] expression on splenic Ter-cells on day 3 post IFN-γ intrasplenic injection. Representative data are shown from two or three experiments conducted with 3-5 mice or samples per group. Data are represented as mean±SD. *p<0.05, **p<0.01, and ***p<0.001.
as §1, with “IFN-γ was administered through intrasplenic injection on day 15 post tumor implantation at 2 μg/mouse for 1 dose. LOXO-292 was administered by oral gavaging at 100 μg/mouse/day throughout the entire studies, starting on day 0 of the therapies. Spleens were harvested on day 20 or at indicated times post-inoculation for analysis of spleen size or splenic cells.” left out
as §2

[7] = system: artemin; test: Artemin levels in serum (ELISA) and artemin mRNA in spleen (qPCR); type: in vivo, mouse; conditions: LLC tumor-bearing mice treated with IR or anti-PD-L1 plus EPO i.v.
Experimental: ELISA. Tumor tissues were homogenized in PBS with protease inhibitor followed by the addition of Triton X-100. Serum was collected on day 20 post-tumor inoculation or at indicated times. The concentration of artemin or TGF-β was measured with artemin ELISA Kit (E03A0032 for mouse and E01A0032 for human, BlueGene Biotechnology), or TGF-β1 Mouse ELISA Kit (BMS608-4, Invitrogen).
Real-time PCR assay. mRNA from tumor cells or splenocytes was isolated using TRIzol according to the manufacturer's instructions (Invitrogen). cDNA was synthesized from pd(N)6-primed mRNA reverse transcription using M-MLV superscript reverse transcriptase. Real-time PCR kits (SYBR Premix Ex Taq™, DRR041A) were purchased from Takara Bio Inc. PCR was performed using a CFX96 (Bio-Rad). mRNA specific for the housekeeping gene GAPDH was measured and used as an internal control. The primers for artemin were 5′-TACTGCATTGTCCCACTGCCTCC-3′ (SEQ ID NO: 1) for the upstream primer (UP) and 5′-TCGCAGGGTTCTTTCGCTGCACA-3′ (SEQ ID NO: 2) for the downstream primer (DP); GAPDH: 5′-AGACCAGCCTGAGCAAAAGA-3′ (SEQ ID NO: 3) for UP and 5′-CTAGGCTGGAGTGCAGTGGT-3′ (SEQ ID NO: 4) for DP.

[8] = LLC tumor-bearing mice, intra-splenic injection

For “rhEPO: Recombinant human erythropoietin used for the treatment of anemia in cancer patients”, the “Survival benefit in cancer patients treated by RT” value ([1]; several clinical trials) is listed as “detrimental effects”.

With IFN-α the “Ter-cell accumulation in spleen after intra-tumor injection” value ([2]; WT mice bearing LLC or B16-SIY tumors, i.t.) was “reduced Ter-cell accumulation”.

In the case of CO[C@]1(C(=O)N[C@@H](C)c2ccc(-n3cc(F)cn3)nc2)CC[C@H](c2nc(C)cc(Nc3cc(C)[nH]n3)n2)CC1 [BLU-677], the “Outcomes for patients with RET fusion-positive cancers” value [1] is listed as “improved outcomes”.

For COc1ccc(CN2C3CC2CN(c2ccc(-c4cc(OCC(C)(C)O)cn5ncc(C#N)c45)cn2)C3)cn1 [LOXO-292], the “Tumor growth: therapeutic effect of IR and PD-L1 blockade in the context of EPO treatment” value ([3]; IR or anti-PD-L1 plus EPO plus agent) was “restored the therapeutic effects of IR and PD-L1 blockade”, the “Tumor growth: influence on the therapeutic effect of IR and PD-L1 blockade” value [3] was “enhanced the effects of IR and PD-L1 blockade” and the “Spontaneous lung metastasis: influence on the effects of IR and PD-L1 blockade” value [4] was “promoted the effects of IR and PD-L1 blockade”. For the same molecule, the “Outcomes for patients with RET fusion-positive cancers” value [1] was “improved outcomes” and the “Artemin-induced activation of downstream signaling (p-AKT, p-ERK)” value [5] was “inhibited artemin-induced activation of downstream signaling”.

B1: IFN-γ: Recombinant mouse IFN-γ (315-05) from Peprotech, intrasplenic injection (protein, UniProt P01580 23-155, looked up)
Interferon gamma: HGTVIESLESLNNYFNSSGIDVEEKSLFLDIWRNWQKDGDMKILQSQIISFYLRLFEVLKDNQAISNNISVIESHLITTFFSNSKAKKDAFMSIAKFEVNNPQVQRQAFNELIRVVHQLLPESSLRKRKRSRC
For B1, the “Abundance of CD8+ T cells in spleen” value [6, 8] was “restored the abundance”, the “Apoptosis of immune cells, including MDSCs and CD8+ T cells” value [6, 8] was “did not change apoptosis levels” and the “Apoptosis of splenic Ter-cells” value ([6]; LLC tumor-bearing mice, intra-splenic injection, 3 days after treatment) was “increased apoptosis of Ter-cells”. The “MHC I expression on Ter-cells” value ([6]; day 3 post intrasplenic injection) was “enhanced the MHC I expression”.

B2: EPO: recombinant erythropoietin (959-ME) from R&D Systems (protein, UniProt P07321 27-192, looked up)
Erythropoietin: APPRLICDSRVLERYILEAKEAENVTMGCAEGPRLSENITVPDTKVNFYAWKRMEVEEQAIEVWQGLSLLSEAILQAQALLANSSQPPETLQLHIDKAISGLRSLTSLLRVLGAQKELMSPPDTTPPAPLRTLTVDTFCKLFRVYANFLRGKLKLYTGEVCRRGDR
With B2 the “Level of secreted artemin in serum under IR or PD-L1 blockade” value [7] was “diminished the effects of IR and PD-L1 blockade”, the “Tumor growth: influence on the therapeutic effect of IR and PD-L1 blockade” value [3] was “inhibited the therapeutic effect of both IR and PD-L1 blockade” and the “Ter-cell accumulation under IR or PD-L1 blockade” value ([2]; LLC tumor-bearing mice treated with IR or anti-PD-L1 plus EPO i.v.) was “diminished the effects of IR and PD-L1 blockade”. For the same molecule, the “Spleen size and Ter-cell accumulation in naive mice” value ([2]; naive B6 mice, i.v. and s.c. routes) was “increased spleen size and Ter-cell accumulation”.
